Patent publication US20260234121A1, “DERIVATIVES, IMMUNOGENS, AND ANTIBODIES AND USE OF THE SAME IN DETECTION OF ECSTASY-CLASS COMPOUNDS” (Siemens Healthcare Diagnostics Inc., priority 2023, published 2026)
Positions count from the first letter of the chain named.

B1: 178K 3C8 mAb: mouse monoclonal antibody raised against E1-KLH (56); IgG1, κ; heavy chain SEQ ID NO 88, light chain SEQ ID NO 112 (antibody)
heavy: MNFGLSLIFLVLILKGVQCEVQLVESGGDLVKPGESLKLACAASGFTFSRDVMSWVRQTPDKRLEWVATISSNGIYIYYTDSVKGRFTISRDNAKNTLYLQLSSLRSEDTAVYYCSRGNNLDSWGQGTTLTVSSAKTTPPSVYPLAPGSAAQTNSMVTLGCLVKGYFPEPVTVTWNSGSLSSGVHTFPAVLQSDLYTLSSSVTVPSSTWPSETVTCNVAHPASSTKVDKKIVPRDCGCKPCICTVPEVSSVFIFPPKPKDVLTITLTPKVTCVVVDISKDDPEVQFSWFVDDVEVHTAQTQPREEQFNSTFRSVSELPIMHQDWLNGKEFKCRVNSAAFPAPIEKTISKTKGRPKAPQVYTIPPPKEQMAKDKVSLTCMITDFFPEDITVEWQWNGQPAENYKNTQPIMDTDGSYFIYSKLNVQKSNWEAGNTFTCSVLHEGLHNHHTEKSLSHSPGK
light: MRFSAQLLGLLVLWIPGSTADIVMTQAAFSNPVTLGTSASISCRSSKSLLHRNGITYLYWYLQKPGQSPQLLIYQMSNLASGVSDRFSSSGSGTDFTLRISRVEAEDVGVYFCGQDLELPYSFGGGTKLEIKRADAAPTVSIFPPSSEQLTSGGASVVCFLNNFYPKDINVKWKIDGSERQNGVLNSWTDQDSKDSTYSMSSTLTLTKDEYERHNSYTCEATHKTSTSPIVKSFNRNEC
B2: 178K 5B11 mAb: mouse monoclonal antibody raised against E1-KLH (56); IgG1, κ; heavy chain SEQ ID NO 90, light chain SEQ ID NO 114 (antibody)
heavy: MNFGLSLIFLALILKGVQCEVQLVESGGDLVKPGGSLKLSCAASGFSFSAYVMSWVRQTPDKRLEWVATISRGGSYIYYPDSVKGRFTISRDDARDTLYLQMTSLKSEDTAVYYCSGGNNLDYWGQGTALTVSSAKTTPPSVYPLAPGSAAQTNSMVTLGCLVKGYFPEPVTVTWNSGSLSSGVHTFPAVLQSDLYTLSSSVTVPSSTWPSETVTCNVAHPASSTKVDKKIVPRDCGCKPCICTVPEVSSVFIFPPKPKDVLTITLTPKVTCVVVDISKDDPEVQFSWFVDDVEVHTAQTQPREEQFNSTFRSVSELPIMHQDWLNGKEFKCRVNSAAFPAPIEKTISKTKGRPKAPQVYTIPPPKEQMAKDKVSLTCMITDFFPEDITVEWQWNGQPAENYKNTQPIMDTDGSYFIYSKLNVQKSNWEAGNTFTCSVLHEGLHNHHTEKSLSHSPGK
light: B1 light with H51Q, R52I, S84P, F112Y, S122T
B3: 178F 4H5 mAb: mouse monoclonal antibody raised against E1-KLH (56); IgG2a, κ; heavy chain SEQ ID NO 81, light chain SEQ ID NO 105 (antibody)
heavy: MNFGLSLIFLALILKGVQCEVQLVESGGDLVQPGGSLILSCVASGFTFRNYVMSWIRQTPDKRLEWVATINSGGSYTYYPDTVKGRFTISRDNAKSTLYLQMSSLKSEDTAMYYCASGNFLDYWGQGTSVTVSSAKTTPPSVYPLAPGSAAQTNSMVTLGCLVKGYFPEPVTVTWNSGSLSSGVHTFPAVLQSDLYTLSSSVTVPSSTWPSQTVTCNVAHPASSTKVDKKIVPRDCGCKPCICTVPEVSSVFIFPPKPKDVLTITLTPKVTCVVVDISKDDPEVQFSWFVDDVEVHTAQTKPREEQINSTFRSVSELPIMHQDWLNGKEFKCRVNSAAFPAPIEKTISKTKGRPKAPQVYTIPPPKEQMAKDKVSLTCMITNFFPEDITVEWQWNGQPAENYKNTQPIMDTDGSYFVYSKLNVQKSNWEAGNTFTCSVLHEGLHNHHTEKSLSHSPGK
light: B1 light with H51N, R52S, N53Y, S84P, F112Y, S122T, G125S, K128Q

Test system: E1-OVA (55)
Experiment: ELISA binding of hybridoma supernatant to E1-OVA (55) coated plates, without inhibitor
Details: hybridoma supernatant mixed with PBS alone
Protocol: All ELISA steps were performed at rt. Wells of a Nunc Maxi-Sorp™ flat-bottom ELISA plates (ThermoFisher Scientific, Waltham, MA) were coated with 50 μL E1-OVA (55), E2-OVA (65), and E3-OVA (72) at a concentration of 1 μg/mL in PBS for 1 h. The plates were flicked dried and remaining binding sites were blocked with 200 μL per well of blocking solution (0.5% casein, 0.05% (v/v) Tween 20 in PBS) for one hour. Plates were washed six times with MilliQ water containing 0.05% (v/v) Tween 20 on Biotek 405 LS plate washer equipped with microplate Biostacker 3 (Biotek, Winooski, VT). 50 μL of serially diluted antibody samples (serial dilutions of serum, hybridoma supernatant, or monoclonal antibodies in PBS) were added to each well and incubated for one hour. Unbound antibodies were removed by washing as described above, and 50 μL of secondary goat anti-rabbit IgG HRP or goat anti-mouse IgG (Fc)-HRP conjugate (ThermoFisher Scientific, USA), diluted 1:3,000 in the blocking solution was added to each well for detection bound rabbit or mouse antibody, respectively. Plates were incubated for one hour, washed and 100 μL of TMB substrate (Moss, Pasadena, MD) was added for 15 min to determine bound peroxidase. Optical density (OD) of the samples at 650 nm was measured using an ELISA plate reader (Molecular Devices LLC., San Jose, CA). The titer of each serum sample was designated as the maximum dilution that yielded at least twice the absorbance of the same dilution of the nonimmune control serum.
The supernatants were screened in a competitive ELISA for the presence of anti-ecstasy compound monoclonal antibodies (mAbs) as follows. 25 μL of the hybridoma supernatant was mixed with equal volume of PBS alone or containing 20 μg/mL inhibitor (MDA or MDMA) were incubated for 1 h in the wells of E1-OVA (55) coated ELISA plates. The plates were washed and the presence of bound mAbs were detected using goat anti-mouse IgG (Fc)-HRP conjugate and TMB substrate as described above. The level of inhibition of mAb/E1-OVA (55) binding in the presence of the inhibitor was estimated using a Percent (%) Inhibition calculated by the below formula:
[formula] • where “OD650 nm w/o Inhibitor” is the binding response of the antibody sample diluted in PBS alone (with no inhibitor), and the “OD650 nm with Inhibitor” is the binding response of the same antibody sample in the presence of 10 μg/mL of inhibitor (i.e., MDA or MDMA). […]

| Molecule | E1-OVA (55) Binding, OD650 nm w/o inhib |
| --- | --- |
| B1 | 2.389 OD650 nm |
| B2 | 2.893 OD650 nm |
| B3 | 2.948 OD650 nm |

Test system: not listed separately
Experiment: Prototype EMIT ecstasy assay, cross-reactivity with amphetamine
Format: biochemical
Details: conjugate Compound 58; negative urine pool

| Molecule | Concentrations (μg/mL) of Structurally Related Compounds Equivalent to 500 ng/mL MDMA Cutoffs, (+/−) Amph |
| --- | --- |
| B1 | 30 µg/mL |
| B2 | 25 to 30 µg/mL |
| B3 | 30 µg/mL |

Test system: not listed separately
Experiment: Prototype EMIT ecstasy assay, cross-reactivity with methamphetamine
Format: biochemical
Details: conjugate Compound 58; negative urine pool

| Molecule | Concentrations (μg/mL) of Structurally Related Compounds Equivalent to 500 ng/mL MDMA Cutoffs, (+/−) mAmph |
| --- | --- |
| B1 | 50 µg/mL |
| B2 | 30 to 50 µg/mL |
| B3 | 30 to 40 µg/mL |
